Source: PMC3539207
Read-outs that look alike come from different tables or passages of the source.

Legend:
Test in all cases: fluorescence polarization
[1] = biological target: GR DBD R460D/D462R (Homo sapiens, UniProt P04150 417-506, R460D;D462R)
[2] = biological target: T1, GR DBD WT (Homo sapiens, UniProt P04150 417-506)
[3] = biological target: T1, GR DBD WT; remark: listed apart in the source
[4] = biological target: T1, GR DBD WT; remark: listed apart in the source

T1 sequence (P04150 417-506): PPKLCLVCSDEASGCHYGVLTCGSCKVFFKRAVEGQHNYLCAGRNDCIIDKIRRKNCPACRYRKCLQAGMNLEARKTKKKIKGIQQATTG
Chain of GR DBD R460D/D462R (P04150 417-506 R460D/D462R): as the sequence (P04150 417-506) above, with R44D, D46R counted along it

B1: (+)GRE (dsDNA)
DNA 1: CCAGAACAGAGTGTTCTGA
DNA 2: TCAGAACACTCTGTTCTGG
B1 gave a Kd [1] of 80 ± 7 nM and a Kd [2] of 70 ± 7 nM.

B2: TSLP, low site only (dsDNA)
DNA 1: CCGCCTCCGG
DNA 2: CCGGAGGCGG
With B2 the Kd [3] was 12700 ± 800 nM.

B3: FGFR3 nGRE (dsDNA)
DNA 1: CTGCCTCCCCGGAGATGG
DNA 2: CCATCTCCGGGGAGGCAG
For B3, the Kd [4] was 280 ± 80 nM.

B4: INS nGRE (dsDNA)
DNA 1: TGCTCTCCTGGAGACATT
DNA 2: AATGTCTCCAGGAGAGCA
With B4 the Kd [4] was 500 ± 70 nM.
